Measured values as given in patent US7414023B2, “Peptide ligands for prostate specific antigen” (Licentia Ltd., priority 2000, dated 2008).
Bridge positions count the residues as written; N and C are the ends. Square brackets hold non-standard residues; d marks the D form. Ends that are not written are not given here. Ahx = NCCCCCC(=O)O

Key:
PSA [1] = molecular target: T1, PSA (Homo sapiens, UniProt P07288); experiment: PSA activity measurements with modified peptides, substrate S-2586 (Example 5); type: biochemical; parameters: PSA was purified from human seminal fluid as described previously (3); from tissue; host or cells: human seminal fluid; key to activity of modified peptide (active / inactive): PSA-peptide/PSA ratio above 1.1 was interpreted to be active; below 1.1 as inactive; details: for effect of modification on the activity of the peptide (in words): compared with parent A-1, B-2 or C-4; for activity of modified peptide (active / inactive): from PSA-peptide/PSA ratio
T1 sequence (P07288 25-261): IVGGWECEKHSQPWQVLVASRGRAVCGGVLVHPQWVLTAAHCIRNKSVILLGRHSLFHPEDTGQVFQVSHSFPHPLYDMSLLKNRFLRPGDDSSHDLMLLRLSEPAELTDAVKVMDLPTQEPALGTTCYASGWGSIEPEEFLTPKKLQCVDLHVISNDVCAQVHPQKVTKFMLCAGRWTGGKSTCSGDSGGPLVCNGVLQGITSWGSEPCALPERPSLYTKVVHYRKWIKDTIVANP
Method: PSA activity measurements: The effect of different peptides on the activity of PSA was studied by using chymotrypsin substrate S-2586 (MeO-Suc-Arg-Pro-Tyr-pNA) (Chromogenix, Mölndal, Sweden). 77 pmoles (2 μg) of PSA, substrate and 10 μmoles of different peptides were incubated in Tris-buffer (10 mM Tris and 150 mM NaCl at pH 7.8) with 0.2 mM concentration of the substrate at room temperature. PSA reaction without any peptide was used as basic level control. Reaction was measured after 60 minutes incubation at […] using Multiscan RC photometer (Labsystems, Finland). The effect of the peptides was calculated as a ratio from the OD value of PSA-peptide complex to PSA alone after 60 minutes incubation.

PSA [2] = molecular target: T1, PSA; experiment: Enzyme activity of PSA with chromogenic substrate S-2586; type: biochemical; parameters: PSA was purified from human seminal fluid as described previously (3); from tissue; host or cells: human seminal fluid; details: for effect on the enzyme activity of PSA (in words) / effect of derivatization or labeling on PSA binding activity, read as effect on PSA enzyme activity (in words): S-2586; for effect on the enzyme activity of PSA (in words): synthetic peptides in 100-fold molar excess; for effect of derivatization or labeling on PSA binding activity, read as effect on PSA enzyme activity (in words): PSA (0.33 mM / 0.33 μM as printed)
Method: The enzyme activity of PSA was studied in the presence of peptides alone or together with Zn^2+ by using the chymotrypsin substrate S-2586 (MeO-Suc-Arg-Pro-Tyr-pNA) (Chromogenix, Mölndal, Sweden). […] PSA (333 nM) was incubated with a 1-100-fold molar excess of GST-peptide or 100-fold excess of synthetic peptide in TBS buffer, pH 7.8 containing 0.5 g/L BSA for 1 h at 22° C. The effect of Zn^2+ on the enzyme activity of PSA was studied by including 1-200 μM of ZnCl2 in the reaction buffer. The combined effect of peptides and Zn2+ on the enzyme activity of PSA was studied by incubating PSA (333 nM) with peptide (333 nM) in the buffer containing 1-200 μM Zn^2+ for 1 h. After addition of substrate to a final concentration 0.2 mM, the absorbance was monitored at 5-min intervals for 2 h at 405 nm on a Labsystems Multiskan MCC/340 photometer (Labsystems, Helsinki, Finland). As a control, the effect of wild type GST on the enzyme activity of PSA was tested.
In the experiments, PSA (0.33 μM) was incubated with increasing concentrations of GST-C-4 (0-100-fold molar excess) for 1 h, after which the chromogenic substrate S-2586 was added and enzyme activity was monitored by measuring the absorbance at 405 nm. Data represent mean values from duplicate wells ±SE.
PSA (0.33 μM) was incubated with chemically synthesized peptides (100-fold molar excess) for 1 h, after which the chromogenic substrate S-2586 was added and enzyme activity was monitored by measuring the absorbance at 405 nm.
Because zinc is known to inhibit the enzyme activity of PSA, we further characterized the effect of GST-peptides on the enzyme activity of PSA by assessing the combined effect of peptides and Zn^2+. […] The effect of GST-C-4 and Zn^2+ on enzyme activity was determined by incubating PSA (0.33 μM) with the same molar concentration of GST-C-4 and various concentrations of Zn^2+. The reaction was monitored by measuring absorbance at 405 nm after addition of the chromogenic substrate S-2586. […] Data represent mean values from duplicate wells ±SE.
(§1) Data represent mean values from duplicate wells ±SE.
As control the enzyme activity of PSA alone was measured.
as §1
20 μg of the peptide was iodinated by the Iodogen method. After iodination the peptide was purified by using C18 Sep-Pak column.

PSA [3] = molecular target: T1, PSA; experiment: GST-peptide IFMA: binding of GST-peptides to PSA captured by MAb 5E4; parameters: PSA was purified from human seminal fluid as described previously (3); from tissue; host or cells: human seminal fluid; details: GST fusion proteins
Method: After washing the binding of GST-peptide was quantified by IFMA using an Eu-labelled anti GST antibody as tracer. Data represent mean values from duplicate wells ±standard error (SE).
The solid phase antibodies used in the IFMAs were coated onto microtitration wells at a concentration of 5 μg/mL in TBS for 16 h at 22° C., the solution was discarded and the wells were saturated with 10 g/L bovine serum albumin in TBS for 3 h at 22° C. The antibodies used as tracers were labeled with a Eu^3+ chelate as described previously (26). The assay buffer was 50 mM Tris-HCL, pH 7.7, 150 mM NaCl, 33.3 μM bovine serum albumin, 1 μM bovine globulin.
The binding of individual phage clones to PSA was tested by IFMA (phage IFMA). In the phage IFMA, about 30 ng of PSA was added to MAb 5E4 coated wells for 1 h. After washing (Buffer: 150 mM NaCl, 7.7 mM NaN3, 0.2 g/L Tween 20), 15 μL of phage and 200 μl assay buffer was added. After incubation for 1 h, the wells were washed and filled with 200 μl of assay buffer containing 50 ng europium-labeled anti phage monoclonal antibody recognizing the M13 coat protein of the phage. After incubation for 60 min, the wells were washed 4 times, and enhancement solution (EG&G-Wallac) was added. The fluorescence was quantified with a 1234 DELFIA Research fluorometer (EG&G-Wallac). Binding of GST-peptide to PSA was determined by an IFMA (GST-peptide IFMA) similar to the one for phage peptides except that Eu^3+-labeled antibody to GST was used. Various amounts of GST-peptide or wild type GST were added to wells containing captured PSA in 200 μL of assay buffer and incubated for 1 h. To test the effect of Zn^2+ on the binding between GST-peptide and PSA, various concentrations of Zn^2+ (1-200 μM) were added to the buffer in the incubation step of GST-peptide and PSA. In competition experiments, GST-peptide (167 nM) or wild type GST were first incubated with increasing amounts of PSA (0-333 nM) in 0.5% BSA-TBS buffer for 60 min, then added to wells containing PSA captured by MAb 5E4. After incubation for 1 h the wells were washed and Eu^3+-labeled anti GST antibody was added. After further incubation and washing the bound fluorescence was measured as described above. When assessing the binding of the GST-peptides to other proteinases, including chymotrypsin, cathepsin G, trypsin, and kallikrein, these proteinases were captured by their specific antibodies coated to the microtitration well. Recombinant hK2 was captured by MAb 5E4, which is known to bind hK2 (24). For assessing the binding of the GST-peptides with complexes of PSA, including PSA-ACT and PSA-α1-protease inhibitor (PSA-API) (28), the complexes were captured by antibodies against ACT and API, respectively. After capturing the various proteinases or PSA complexes, GST-peptide was added and binding was monitored as described above for the GST-peptide IFMA.

With “CVFTSNYAFC (disulfide 1-10 (inferred)) [Peptide A-1-4]” the “effect of modification on the activity of the peptide (in words)” value (from here on “effect of modification”) (PSA [1]) was “did not affect”.
With “CVFTSNYAYC (disulfide 1-10 (inferred)) [Peptide A-1-2]” the “effect of modification” value (PSA [1]) was “did not affect”.
“Tc99m-labeled C4: reduced C4-peptide labeled with 99mTc between thiol-sulfurs (HDP method) (CVAYCIEHHCWTC; also: 99mTc complexed between reduced thiol sulfurs (HDP method))” was tested, and the “reduction of binding by technetium labeling” value (PSA [2]; PSA 0.33 μM, 30-fold molar excess, compared with unlabelled C4) was “about 50%”.
With “CVFTSNYNYC (disulfide 1-10 (inferred)) [Peptide A-1-3]” the “effect of modification” value (PSA [1]) was “did not affect”.
For “Wild type GST: wild type glutathione S-transferase without inserted peptide, control [reference compound]”, the “binding to PSA in GST-peptide IFMA (in words)” value (PSA [3]) was “did not bind”, the “effect on the enzyme activity of PSA (in words)” value (PSA [2]) was “did not affect” and the “effect on the enzyme activity of PSA (in words)” value (PSA [2]; listed as wild type GST) was “no effect”.
In the case of “CVAYAIQHHC (disulfide 1-10 (inferred)) [Peptide C-4-4]”, the “activity of modified peptide (active / inactive)” value (from here on “activity … (active / inactive)”) (PSA [1]) is reported as “inactive”.
“Eu-labelled C4-peptide: C4 peptide labelled with Eu-chelate, C18 fractions 26-28 (CVAYCIEHHCWTC; disulfide 1-13, 5-10; also: Eu-chelate label, site not given here)” was tested, and the “effect of Eu-labelled peptide fractions on enzyme activity of PSA” value (PSA [2]; PSA 0.33 μM, 100 μL of C18 fractions 26-28) was “enhanced the enzyme activity of PSA strongly”.
In the case of “CVFAHNYNYLVC (disulfide 1-12 (inferred)) [Peptide B-2-2]”, the “effect of modification” value (PSA [1]) is reported as “did not affect”.
CVAYCIEHHCATC [Peptide C-4-6] was tested, and the “activity … (active / inactive)” value (PSA [1]) was “inactive”.
“SKSKSKS—aca-CVAYCIEHHCWTC (SKSKSKS[Ahx]CVAYCIEHHCWTC; not fully specified (bridges); printed as SKSKSKS—aca-CVAYCIEHHCWTC; cysteine pairing not given here) [SKSKSKS (SEQ ID NO:47)-tailed C4]” was tested, and the “effect of derivatization or labeling on PSA binding activity, read as effect on PSA enzyme activity (in words)” value (PSA [2]; 30-fold molar excess) was “did not affect the binding activity”.
For “CVFAHNYNALVC (disulfide 1-12 (inferred)) [Peptide B-2-3]”, the “effect of modification” value (PSA [1]) was “activity remained”.
In the case of “1251-labeled C4: C4-peptide (CVAYCIEHHCWTC) iodinated by the Iodogen method (not fully specified (residue 4, bridges); cysteine pairing not given here)”, the “effect of derivatization or labeling on PSA binding activity, read as effect on PSA enzyme activity (in words)” value (PSA [2]; 30-fold molar excess) is reported as “almost completely destroyed its binding activity”.
For CLSTCAQSCRISC [Peptide D-1], the “binding to PSA in GST-peptide IFMA (in words)” value (PSA [3]) was “did not show significant binding”.
With CVAYCIQHHCWTC [Peptide C-4-3] the “effect of modification” value (PSA [1]) was “did not affect” and the “activity … (active / inactive)” value (PSA [1]) was “active”.
